These results are taken from article PMC6834639, “Molecular basis for chirality-regulated Aβ self-assembly and receptor recognition revealed by ion mobility-mass spectrometry” (Nature Communications, 2019).

Square brackets hold non-standard residues; d marks the D form. Ends that are not written are not given here.

Data set [1] deals with T1, human serum albumin (HSA) (human, UniProt P02768 25-609).
T1 construct: serum albumin, human; source: bought: Sigma-Aldrich
The experiment in a line: native MS; native IM-MS with CIU of HSA-Aβ (1–10) complexes, charge states 15+ to 18+. Conditions: both partners purified.

For data set [2], the target named is tetrameric transthyretin (TTR) (UniProt P02766 21-147). In words: SPR; OpenSPR (Nicoya), TTR immobilised on a COOH chip by amine coupling; Aβ peptides injected (Aβ C-terminals 2.4-48 µM; Aβ (1–40/42) 0.2-20 µM); PBS pH 6.8 with 0.005% Tween 20; 150 s association, 400 s dissociation; 1:1 interaction model. Conditions: both partners purified. In general terms: In SPR one partner is held on a chip, and binding of the other changes the refractive index at the surface.

Data set [3] concerns the molecule itself. In words: native MS; IM-MS of YGGFL aggregates; mass spectrum, concentration dependence and growth curve.
Data set [4] deals with the molecule itself. The experiment in a line: native MS; IM-MS of oligomers of one Aβ fragment alone; Aβ (1–10) and Aβ (1–16) 600 µM, 10 mM NH4OAc; oligomers of many sizes seen, a printed size is the largest one.
Data set [5] has as its target T2, bovine serum albumin (BSA) (bovine, UniProt P02769 25-607).
T2 construct: serum albumin, bovine; source: bought: Sigma-Aldrich
In words: native MS; native IM-MS with collision-induced unfolding (CIU); 100 mM NH4OAc; Aβ (1–16) 15 µM, Cu2+ 20 µM, BSA/HSA 7.5 µM; 37 °C incubation. Conditions: both partners purified.

The target in data set [6] is T1, human serum albumin (HSA). The description is as above. Conditions: both partners purified.

T2 sequence (P02769 25-607): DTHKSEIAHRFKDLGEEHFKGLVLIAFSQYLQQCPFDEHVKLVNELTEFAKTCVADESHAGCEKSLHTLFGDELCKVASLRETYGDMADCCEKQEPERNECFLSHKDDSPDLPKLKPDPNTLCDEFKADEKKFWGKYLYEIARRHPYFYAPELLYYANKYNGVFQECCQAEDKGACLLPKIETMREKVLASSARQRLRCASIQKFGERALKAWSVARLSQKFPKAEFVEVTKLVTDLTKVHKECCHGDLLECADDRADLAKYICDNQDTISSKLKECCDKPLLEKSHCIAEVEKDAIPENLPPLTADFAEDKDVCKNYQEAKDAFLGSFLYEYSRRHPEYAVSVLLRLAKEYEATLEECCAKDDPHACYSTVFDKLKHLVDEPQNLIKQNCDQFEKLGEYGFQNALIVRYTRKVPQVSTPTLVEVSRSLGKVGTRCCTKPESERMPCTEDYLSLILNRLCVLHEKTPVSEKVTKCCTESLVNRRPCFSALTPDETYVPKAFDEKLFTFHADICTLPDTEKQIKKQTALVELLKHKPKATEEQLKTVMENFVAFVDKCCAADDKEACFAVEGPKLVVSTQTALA

B1: WT Aβ (1–10) (peptide)
peptide: DAEFRHDSGY
notes: amyloid beta residues 1-10, all L; also called Aβ N-terminal fragment; source: bought: Sangon Biotech Co., Ltd. (Shanghai, China)
Take B1: the binding result in data set [1] is listed as “binds”.

B2: dD Aβ (17–36) (peptide)
peptide: LVFFAE[dD]VGSNKGAIIGLMV
notes: amyloid beta residues 17-36 with D-isomerized Asp; also called single D-isomerized Aβ (17–36); source: bought: Sangon Biotech Co., Ltd. (Shanghai, China)
One may read the Kd as the equilibrium constant for the complex coming apart. Read a high Kd as weaker binding. Usually koff stands for the rate constant with which the complex falls apart. Low readings indicate a long-lived complex, high ones a short-lived complex. By kon is commonly meant a measure of how fast the partners come together. Lower therefore signals slower complex formation. In data set [2], B2 returned a Kd of 149 µM, a koff of 0.132 s⁻¹ and a kon of 990 M⁻¹ s⁻¹.

B3: WT Aβ (17–36) (peptide)
peptide: LVFFAEDVGSNKGAIIGLMV
notes: amyloid beta residues 17-36, all L; also called Aβ C-terminal fragment; source: bought: Sangon Biotech Co., Ltd. (Shanghai, China)
In data set [2], B3 showed a Kd of 11.5 µM, a koff of 0.008 s⁻¹ and a kon of 690 M⁻¹ s⁻¹.

B4: YGGFL (peptide)
peptide: YGGFL
notes: YGGFL, used as a known model of isotropic growth
On to B4, for which the binding result in data set [3] is given as “binds”.

B5: dDdS Aβ (17–36) (peptide)
peptide: LVFFAE[dD]VG[dS]NKGAIIGLMV
notes: amyloid beta residues 17-36 with D-isomerized Asp and Ser; also called co-isomerized Aβ (17–36); source: bought: Sangon Biotech Co., Ltd. (Shanghai, China)
For the molecule B5, in data set [2], the Kd worked out at 83.1 µM, the koff came to 0.102 s⁻¹ and the kon is 1930 M⁻¹ s⁻¹.

B6: WT Aβ (1–16) (peptide)
peptide: DAEFRHDSGYEVHHQK
notes: amyloid beta residues 1-16, all L; also called wild type Aβ (1–16); source: bought: Sangon Biotech Co., Ltd. (Shanghai, China)
As for B6, the binding result in data set [4], in data set [5] and in data set [6] was “binds” in each case.

B7: dS Aβ (17–36) (peptide)
peptide: LVFFAEDVG[dS]NKGAIIGLMV
notes: amyloid beta residues 17-36 with D-isomerized Ser; also called single D-isomerized Aβ (17–36); source: bought: Sangon Biotech Co., Ltd. (Shanghai, China)
In data set [2], B7 showed a Kd of 118 µM, a koff of 0.114 s⁻¹ and a kon of 1160 M⁻¹ s⁻¹.
